Results taken from PMC5439444 (Vascular pharmacology, 2016).

Biological target: GST fusion protein of human full-length (FL) Pin1 (residues 1-163) (human, UniProt Q13526 1-163)
Experiment: pull-down

Chain of GST fusion protein of human full-length (FL) Pin1 (residues 1-163) (Q13526 whole entry, the tested form may be a part): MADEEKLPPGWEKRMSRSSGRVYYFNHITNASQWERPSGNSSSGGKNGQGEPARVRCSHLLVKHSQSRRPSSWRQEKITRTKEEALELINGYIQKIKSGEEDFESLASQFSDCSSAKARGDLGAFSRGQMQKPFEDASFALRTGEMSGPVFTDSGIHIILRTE

amount bound relative to WT eNOS: > 2 fold
B1: bovine phospho-mimetic S116D endothelial nitric oxide synthase (eNOS) (enzyme, UniProt P29473 1-1205, looked up)
chain: MGNLKSVGQEPGPPCGLGLGLGLGLCGKQGPASPAPEPSRAPAPATPHAPDHSPAPNSPTLTRPPEGPKFPRVKNWELGSITYDTLCAQSQQDGPCTPRCCLGSLVLPRKLQTRPDPGPPPAEQLLSQARDFINQYYSSIKRSGSQAHEERLQEVEAEVASTGTYHLRESELVFGAKQAWRNAPRCVGRIQWGKLQVFDARDCSSAQEMFTYICNHIKYATNRGNLRSAITVFPQRAPGRGDFRIWNSQLVRYAGYRQQDGSVRGDPANVEITELCIQHGWTPGNGRFDVLPLLLQAPDEAPELFVLPPELVLEVPLEHPTLEWFAALGLRWYALPAVSNMLLEIGGLEFSAAPFSGWYMSTEIGTRNLCDPHRYNILEDVAVCMDLDTRTTSSLWKDKAAVEINLAVLHSFQLAKVTIVDHHAATVSFMKHLDNEQKARGGCPADWAWIVPPISGSLTPVFHQEMVNYILSPAFRYQPDPWKGSATKGAGITRKKTFKEVANAVKISASLMGTLMAKRVKATILYASETGRAQSYAQQLGRLFRKAFDPRVLCMDEYDVVSLEHEALVLVVTSTFGNGDPPENGESFAAALMEMSGPYNSSPRPEQHKSYKIRFNSVSCSDPLVSSWRRKRKESSNTDSAGALGTLRFCVFGLGSRAYPHFCAFARAVDTRLEELGGERLLQLGQGDELCGQEEAFRGWAKAAFQASCETFCVGEEAKAAAQDIFSPKRSWKRQRYRLSTQAEGLQLLPGLIHVHRRKMFQATVLSVENLQSSKSTRATILVRLDTAGQEGLQYQPGDHIGICPPNRPGLVEALLSRVEDPPPPTESVAVEQLEKGSPGGPPPSWVRDPRLPPCTLRQALTFFLDITSPPSPRLLRLLSTLAEEPSEQQELETLSQDPRRYEEWKWFRCPTLLEVLEQFPSVALPAPLLLTQLPLLQPRYYSVSSAPNAHPGEVHLTVAVLAYRTQDGLGPLHYGVCSTWLSQLKTGDPVPCFIRGAPSFRLPPDPYVPCILVGPGTGIAPFRGFWQERLHDIESKGLQPAPMTLVFGCRCSQLDHLYRDEVQDAQERGVFGRVLTAFSREPDSPKTYVQDILRTELAAEVHRVLCLERGHMFVCGDVTMATSVLQTVQRILATEGDMELDEAGDVIGVLRDQQRYHEDIFGLTLRTQEVTSRIRTQSFSLQERHLRGAVPWAFDPPGPDTPGP
